The source of these data is publication PMC4346921, “Identification of the Specific Interactors of the Human Lariat RNA Debranching Enzyme 1 Protein” (International Journal of Molecular Sciences, 2015).

The assay concerns the target T1, GST-hDbr1 (human, UniProt Q9UK59-1 1-544).
T1 construct: human Dbr1, cDNA NM_016216 inserted into BamHI and XhoI sites of GEX-6P-1; also called GST-hDbr1 protein; recombinant Dbr1 protein fused to GST; source: E. coli BL21 (DE3) CodonPlus-RIPL, purified (Glutathione Sepharose)
T1 sequence (looked up): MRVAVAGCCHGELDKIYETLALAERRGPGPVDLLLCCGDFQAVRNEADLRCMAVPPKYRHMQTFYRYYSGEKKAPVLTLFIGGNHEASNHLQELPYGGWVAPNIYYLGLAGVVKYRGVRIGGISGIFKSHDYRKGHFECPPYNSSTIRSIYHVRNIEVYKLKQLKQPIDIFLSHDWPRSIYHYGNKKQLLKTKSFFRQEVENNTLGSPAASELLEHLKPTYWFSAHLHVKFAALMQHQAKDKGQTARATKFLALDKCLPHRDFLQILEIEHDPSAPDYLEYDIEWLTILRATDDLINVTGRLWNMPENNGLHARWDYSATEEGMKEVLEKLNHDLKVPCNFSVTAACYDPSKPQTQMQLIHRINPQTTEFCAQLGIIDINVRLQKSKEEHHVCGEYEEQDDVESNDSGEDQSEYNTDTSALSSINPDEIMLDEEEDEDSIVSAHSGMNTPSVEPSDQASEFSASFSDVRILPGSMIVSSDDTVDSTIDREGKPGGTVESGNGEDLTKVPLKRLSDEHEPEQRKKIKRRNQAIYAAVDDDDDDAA
Put plainly: pull-down; 2 μg purified His-tagged (T7-His) hDrn1 incubated with 5 μg GST or GST-hDbr1; bound proteins detected by Western blotting with anti-T7 tag antibody. The note with it: both partners purified.

B1: T7-His-hDrn1 (natural protein, human, UniProt Q69YN2-1 1-538, looked up)
chain: MAQKPLRLLACGDVEGKFDILFNRVQAIQKKSGNFDLLLCVGNFFGSTQDAEWEEYKTGIKKAPIQTYVLGANNQETVKYFQDADGCELAENITYLGRKGIFTGSSGLQIVYLSGTESLNEPVPGYSFSPKDVSSLRMMLCTTSQFKGVDILLTSPWPKCVGNFGNSSGEVDTKKCGSALVSSLATGLKPRYHFAALEKTYYERLPYRNHIILQENAQHATRFIALANVGNPEKKKYLYAFSIVPMKLMDAAELVKQPPDVTENPYRKSGQEASIGKQILAPVEESACQFFFDLNEKQGRKRSSTGRDSKSSPHPKQPRKPPQPPGPCWFCLASPEVEKHLVVNIGTHCYLALAKGGLSDDHVLILPIGHYQSVVELSAEVVEEVEKYKATLRRFFKSRGKWCVVFERNYKSHHLQLQVIPVPISCSTTDDIKDAFITQAQEQQIELLEIPEHSDIKQIAQPGAAYFYVELDTGEKLFHRIKKNFPLQFGREVLASEAILNVPDKSDWRQCQISKEDEETLARRFRKDFEPYDFTLDD
notes: Cwf19L1/hDrn1 cDNA (NM_018294), same fragment as in myc-/Flag-hDrn1, between BamHI and XhoI sites of pET-28a; pET-28a with BamHI/XhoI would place the His and T7 tags at the N-terminus (surmised); also called T7- and His-tagged hDrn1 protein; His-tagged hDrn1; source: E. coli BL21 (DE3) CodonPlus-RIPL, purified (Ni-NTA)
For B1, the binding result is recorded as “binds”.
